Values quoted from earlier work, collected in publication PMC8277102.

Target: EmrA (Escherichia coli) (UniProt P27303)
Experiment: SPR

Kd: 1870 nM
Substance: EmrA (from UniProt P27303)
